{"source": "patent US20240092848A1", "about": "(UNIVERSIT LIBRE DE BRUXELLES, published 2024)", "binders": {"B1": {"name": "pWnt7b peptide on the AFM tip (peptide)", "peptide": "VEVVRASRLRQPTFLRIKQLRSYQKPMETC([NHS‑PEG27‑maleimide linker-AFM tip])", "modifications": "reading uncertain", "notes": "Used in single-molecule force spectroscopy; also called Pep7b"}, "B2": {"name": "Wnt7a-V5 (ligand)", "chain": "LGASIICNKIPGLAPRQRAICQSRPDAIIVIGEGSQMGLDECQFQFRNGRWNCSALGERTVFGKELKVGSREAAFTYAIIAAGVAHAITAACTQGNLSDCGCDKEKQGQYHRDEGWKWGGCSADIRYGIGFAKVFVDAREIKQNARTLMNLHNNEAGRKILEENMKLECKCHGVSGSCTTKTCWTTLPQFRELGYVLKDKYNEAVHVEPVRASRNKRPTFLKIKKPLSYRKPMDTDLVYIEKSPNYCEEDPVTGSVGTQGRACNKTAPQASGCDLMCCGRGYNTHQYARVWQCNCKFHWCCYVKCNTCSERTEMYTCK", "modifications": "palmitoleic acid at Serine 206 (precursor numbering)", "notes": "Transiently expressed in HEK293 cells; also called V5-tagged Wnt7a; full-length Wnt7a; not shown: V5 tag"}, "B3": {"name": "pWnt7b (peptide)", "peptide": "VEVVRASRLRQPTFLRIKQLRSYQKPMET", "notes": "also called synthetic Wnt7b linker peptide"}, "B4": {"name": "pWnt7a (peptide)", "peptide": "VEPVRASRNKRPTFLKIKKPLSYRKPMDT", "notes": "Synthetic, purity over 90%; also called synthetic Wnt7a linker peptide; pWnt7a 238-266"}}, "key": {"[1]": {"target": "T1, Reck-CK-Fc", "T1 chain": "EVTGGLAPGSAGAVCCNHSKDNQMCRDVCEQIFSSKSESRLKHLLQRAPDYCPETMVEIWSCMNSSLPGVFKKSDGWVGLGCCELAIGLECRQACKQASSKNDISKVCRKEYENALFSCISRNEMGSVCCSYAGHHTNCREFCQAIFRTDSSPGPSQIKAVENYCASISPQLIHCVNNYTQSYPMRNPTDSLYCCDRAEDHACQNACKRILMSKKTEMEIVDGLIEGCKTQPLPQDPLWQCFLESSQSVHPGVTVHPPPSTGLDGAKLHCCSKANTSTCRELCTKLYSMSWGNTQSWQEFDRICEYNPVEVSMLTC", "assay": "single-molecule force spectroscopy (AFM tip with PEG-linked pWnt7b, surface coated with Reck-CK-Fc on protein G)"}, "[2]": {"target": "T2, HA-Reck", "T2 construct": "whole, on cells; Co-expressed with V5-tagged Wnt ligands in GPR124-/-;RECK-/- HEK293 cells for PLA", "T2 sequence (O95980 23-942, species assumed, looked up)": "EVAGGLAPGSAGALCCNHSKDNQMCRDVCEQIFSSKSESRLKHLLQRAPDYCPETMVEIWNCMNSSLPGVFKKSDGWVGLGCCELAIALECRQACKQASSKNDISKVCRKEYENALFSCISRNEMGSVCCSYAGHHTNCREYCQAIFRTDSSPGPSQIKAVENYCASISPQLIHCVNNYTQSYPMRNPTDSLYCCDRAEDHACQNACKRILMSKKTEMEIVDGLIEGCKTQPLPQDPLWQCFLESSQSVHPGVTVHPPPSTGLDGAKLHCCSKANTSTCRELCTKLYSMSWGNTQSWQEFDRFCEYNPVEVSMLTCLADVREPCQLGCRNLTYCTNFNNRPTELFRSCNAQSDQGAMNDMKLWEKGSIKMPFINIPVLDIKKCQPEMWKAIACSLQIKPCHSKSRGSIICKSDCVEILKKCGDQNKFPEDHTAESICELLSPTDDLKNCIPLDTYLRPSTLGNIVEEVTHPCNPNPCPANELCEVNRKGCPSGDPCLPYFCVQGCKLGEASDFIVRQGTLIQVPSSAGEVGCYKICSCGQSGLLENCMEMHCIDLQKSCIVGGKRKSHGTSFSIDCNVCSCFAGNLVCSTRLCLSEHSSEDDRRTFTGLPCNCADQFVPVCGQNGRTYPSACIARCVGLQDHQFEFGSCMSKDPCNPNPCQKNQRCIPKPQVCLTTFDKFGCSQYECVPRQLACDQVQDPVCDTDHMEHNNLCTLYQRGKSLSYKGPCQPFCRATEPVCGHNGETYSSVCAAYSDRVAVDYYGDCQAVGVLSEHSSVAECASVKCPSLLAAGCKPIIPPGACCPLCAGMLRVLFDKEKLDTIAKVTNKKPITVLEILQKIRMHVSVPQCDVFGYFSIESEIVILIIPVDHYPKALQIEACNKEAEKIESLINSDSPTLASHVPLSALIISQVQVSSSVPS", "assay": "proximity ligation assay (anti-V5/anti-HA), with against without co-expressed Gpr124", "experimental": "Cells were fixed with 4% paraformaldehyde for 10 min at room temperature (RT) 48 h post transfection. For immunofluorescence staining (IF), cells were blocked in 1% BSA-PBS for 30 min before being exposed to primary antibodies for 1 h at RT. After three PBS washes, cells were incubated with secondary antibodies for 1 h at RT. For anti-V5 staining of Wnt ligands, cells were additionally washes for 10 min in PBS 0.1% Tween 20 before incubation with the secondary antibody solution. For the proximity ligation assay (PLA) (Sigma-Aldrich, St. Louis, MO), cells were blocked for 30 min at 37° C. with the Blocking solution provided by the manufacturer before being incubated with the primary antibodies for 1 h at RT. Cells were washed three times and incubated with the PLA probes anti-rabbit PLUS and anti-mouse MINUS for 1 h at 37° C. […]\nAlthough Reck appears to be the dominant Wnt7 binding determinant, its function in Wnt signaling is known to rely on its capacity to form a complex with Gpr124 through its N-terminal CK domain (Y. Zhou, J. Nathans, Dev. Cell. 31, 248-256 (2014); B. Vanhollebeke et al., Elife. 4, 1-25 (2015)), a domain that is shown herein to be additionally implicated in Wnt7a binding. […] However, a 4-fold increase in Wnt7a-V5/HA-Reck PLAs signals was detected upon co-expression of untagged Gpr124 (FIG. 1F). […]"}, "[3]": {"target": "T1, Reck-CK-Fc", "assay": "isothermal titration calorimetry with Reck-CK-Fc, 25 °C"}, "[4]": {"target": "T1, Reck-CK-Fc", "assay": "isothermal titration calorimetry, peptide titrated into Reck-CK-Fc, 25 °C"}}, "note": "Side chains are listed from the residue outwards. Ends that are not written are not given here. AFM tip = not defined here", "data": [{"binder": "B1", "values": [{"measurement": "Kd", "setting": "[1]", "result": 5, "unit": "µM"}]}, {"binder": "B2", "values": [{"measurement": "fold increase in PLA signal upon co-expression of untagged Gpr124", "setting": "[2]", "result": 4, "unit": "fold"}]}, {"binder": "B3", "values": [{"measurement": "Kd", "setting": "[3]", "result": 1.2, "unit": "µM"}]}, {"binder": "B4", "values": [{"measurement": "Kd", "setting": "[4]", "result": 7, "unit": "µM"}]}]}
